Source: the Human Domainome abundance scans (Beltran et al. 2025)

B1: Peroxisome proliferator-activated receptor delta, residues 71 to 145; numbered along this chain, Q03181 (parent)
chain: NMECRVCGDKASGFHYGVHACEGCKGFFRRTIRMKLEYEKCERSCKIQKKNRNKCQYCRFQKCLALGMSHNAIRF

Variants of: B1
Test: abundance fitness (aPCA) (normalised: wild type 0, dead -1); higher = more abundant; growth selection in yeast, the domain comes from the species named
Conditions: Homo sapiens

Abundance fitness: each site, then its substitutions
N53: P -0.468 | S -0.005
S44: Q 0.069 | F -0.005 | V -0.086 | T -0.049 | I -0.212 | D 0.055 | A -0.045 | W -0.314 | E 0.139 | C -0.164 | L -0.038 | Y 0.061 | M 0.028 | R -0.05 | H 0.073 | G 0.055 | K 0.12 | P -0.134
K49: M -0.065 | V 0.066 | L 0.066 | W 0.006 | S -0.207 | F -0.045 | H 0.602 | A 0 | T 0.023 | G 0.202 | E 0.144
N51: Y -0.363 | H -0.071 | W -0.408 | T -0.002 | V -0.17 | Q -0.042 | S -0.052 | L -0.133 | F -0.028 | G -0.129 | R -0.395 | C -0.451 | P -0.307 | E 0.055 | K -0.212 | D 0.086 | M -0.026 | I -0.016 | A -0.154
R43: V -0.158 | S -0.045 | G -0.085 | C -0.138 | I -0.349 | F 0.082 | W -0.252 | P -0.168 | A -0.064 | N 0.223 | H -0.07 | M -0.043 | T -0.161 | E 0.013 | Q 0.111 | D -0.149 | K 0.078
E37: A -0.13 | N 0.014 | C 0.011 | L -0.16 | V -0.042 | R -0.069 | Y -0.326 | P -0.559 | H -0.067 | F -0.227 | M -0.164 | D -0.034 | T -0.121 | I -0.069 | K -0.038 | W -0.311 | G -0.319
C55: K -0.646 | Y -0.676 | D -1.39 | S -0.823 | L -0.98 | T -0.393 | F -0.824 | A -0.806 | I -0.67 | E -1.03 | R -0.868 | G -0.807 | V -1.03 | W -0.858 | H -0.441 | P -0.864 | M -0.827
C41: A -1 | L -1.27 | R -0.694 | G -0.684 | V -0.645 | W -0.774 | F -0.398 | H -0.361 | S -0.945 | Y -0.816 | P -0.093 | E -0.729
K46: F 0.015 | C -0.046 | L 0.022 | I 0.12 | Q 0.106 | P 0.037 | S 0.006 | V 0.023 | A 0.007 | T 0.05 | D 0.142 | N 0.029 | M 0.066 | E 0.124 | R -0.037 | Y -0.051 | H 0.047 | W -0.153
K40: G -0.472 | R -0.095 | I 0.061 | F 0.02 | N -0.225 | T -0.154 | S -0.255 | H 0.08 | Y -0.088 | E -0.113 | C -0.216 | M -0.09 | L -0.077 | W -0.348 | P -0.117 | D -0.408 | Q -0.05 | V 0.026
C45: Q -0.884 | W -0.864 | G -0.787 | E -0.838 | P -0.876 | R -0.768 | H -0.218 | F -0.647 | Y -0.374 | M -0.548 | D -1.01 | N -0.835 | S -0.743 | L -0.766 | I -0.842 | T -1 | K -0.927 | V -0.84
